Measurements from patent EP4659810A1.

Columns and labels:
[1] = target: VP1 on entire replicative virions of BKV genotype II (patient's isolate) (BK virus genotype II); assay: cell-based or functional assay
[2] = target: VP1 on BKV genotype Ia pseudovirions (BK-D; JF894228) (BK virus genotype Ia (BK-D; JF894228)) (UniProt P03088); assay: cell-based or functional assay
[3] = target: VP1 on BKV genotype II pseudovirions (GBR-12; AB263920) (BK virus genotype II (GBR-12; AB263920)) (UniProt P14996); assay: cell-based or functional assay
[4] = target: VP1 on entire replicative virions of BK virus genotype Ia (Dunlop strain; ATCC VR-837) (BK virus genotype Ia (Dunlop strain)) (UniProt P03088); assay: cell-based or functional assay
[5] = target: VP1 pentamer of BKV genotype I (truncated VP1, residues 31 to 301, C104S) (BK virus genotype I (Dunlop sequence)) (UniProt P03088); assay: BLI (OctetRED96e), biotinylated VP1 pentamer on streptavidin sensor, mAb 0 to 40 nM in solution

MTX005 from Memo Therapeutics AG (referred as 319C07 in WO2021/250097) (antibody), sequence (VH): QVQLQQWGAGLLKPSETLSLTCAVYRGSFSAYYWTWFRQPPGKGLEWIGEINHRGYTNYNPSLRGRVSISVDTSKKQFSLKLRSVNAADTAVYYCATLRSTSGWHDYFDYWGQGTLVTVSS
MTX005 from Memo Therapeutics AG (referred as 319C07 in WO2021/250097) (antibody), sequence (VL): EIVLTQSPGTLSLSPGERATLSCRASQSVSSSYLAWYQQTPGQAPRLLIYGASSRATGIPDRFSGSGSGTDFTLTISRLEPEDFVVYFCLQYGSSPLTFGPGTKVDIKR

Substance: MTX005 from Memo Therapeutics AG (referred as 319C07 in WO2021/250097) (antibody)
- IC50, neutralization of fully replicative BKV virions (MRC5 cells) [1]: 0.03 ng/mL
- IC50, neutralization of BKV pseudovirions (luciferase, 293TT cells) [2]: 0.03 ng/mL
- IC50, neutralization of BKV pseudovirions (luciferase, 293TT cells) [3]: 0.08 ng/mL
- IC50, neutralization of fully replicative BKV virions (MRC5 cells) [4]: 0.05 ng/mL
- Kd [5]: 17.9 nM
